Reference: US20210130473A1, “TGFßR1 INHIBITOR-ASGR ANTIBODY CONJUGATES AND USES THEREOF” (Silverback Therapeutics, Inc., priority 2019, published 2021)
Read-outs that look alike come from different tables or passages of the source.

T1: rat ASGR1 on CHO-S cells (rat) (UniProt P02706)
T1 sequence (looked up): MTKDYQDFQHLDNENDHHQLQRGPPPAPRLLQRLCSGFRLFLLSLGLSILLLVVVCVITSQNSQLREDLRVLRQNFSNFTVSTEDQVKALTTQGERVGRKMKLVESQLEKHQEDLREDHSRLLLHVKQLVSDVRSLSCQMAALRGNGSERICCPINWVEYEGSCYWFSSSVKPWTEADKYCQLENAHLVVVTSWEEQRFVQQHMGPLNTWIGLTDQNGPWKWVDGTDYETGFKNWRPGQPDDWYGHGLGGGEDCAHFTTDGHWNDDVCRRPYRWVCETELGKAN


Columns and labels:
[1] = biological target: T1, rat ASGR1 on CHO-S cells (rat); test: Guava flow cytometry on CHO-S cells expressing rat ASGR1
[2] = biological target: Cynomolgus macaque ASGR1 on CHO-S cells (Cynomolgus macaque); test: Guava flow cytometry on CHO-S cells expressing cynomolgus ASGR1
[3] = biological target: human ASGR1 (asialoglycoprotein receptor 1) on cells (human) (UniProt P07306); test: flow cytometry on HepG2 cells, anti-human IgG PE secondary, MFI (Geo Mean)
[4] = biological target: Cynomolgus macaque ASGR1 on CHO-S cells (Cynomolgus macaque); test: Guava flow cytometry on CHO-S cells expressing cynomolgus ASGR1 (repeat of Table 15)
[5] = biological target: T1, rat ASGR1 on CHO-S cells (rat); test: Guava flow cytometry on CHO-S cells expressing rat ASGR1 (repeat of Table 16)
[6] = biological target: human ASGR1 (asialoglycoprotein receptor 1) on cells (human) (UniProt P07306); test: flow cytometry on HepG2 cells, anti-human IgG PE secondary, MFI (Geo Mean); remark: listed apart in the source

human ASGR1 (asialoglycoprotein receptor 1) on cells (human), sequence (P07306 whole entry): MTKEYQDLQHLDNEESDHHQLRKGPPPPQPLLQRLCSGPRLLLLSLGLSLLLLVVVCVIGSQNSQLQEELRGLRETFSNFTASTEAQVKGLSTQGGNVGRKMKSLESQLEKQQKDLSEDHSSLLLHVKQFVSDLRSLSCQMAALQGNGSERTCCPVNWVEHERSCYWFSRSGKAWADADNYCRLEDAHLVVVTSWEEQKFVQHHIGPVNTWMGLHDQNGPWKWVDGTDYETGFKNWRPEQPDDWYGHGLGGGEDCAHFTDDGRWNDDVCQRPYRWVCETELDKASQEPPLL

Binder | EC50 [1] | EC50 [2] | EC50 (read off the curve) [3] | EC50 [4] | EC50 [5] | EC50 (read off the curve) [6]
ASGR1 mAb-B (antibody, from another filing, V domains shown) VH: EVQLVESGGGLVKPGGSLRLSCAASGFTFSSYSMNWVRQAPGKGLEWVSSISGSSSYIYYADSVKGRFTISRDNAKNSLYLQMNSLRAEDTAVYFCARGGSRGFDPWGQGTLVTVSS VL: DIQMTQSPSSLSASVGDRVTITCRASQSITSYLNWYQQKPGKAPKLLIYTASSLQSGVPSRFSGSGSGTDFTLTISSLQPEDFATYYCQQSHSFPFTFGPGTKVDIK | 380 pM | 360 pM | 0.2 µg/mL | 360 pM | 380 pM | 
ASGR1 mAb-A (antibody, from another filing, V domains shown) VH: QVQLVQSGTEVKKPGASVKVSCKASGYTFTNYDINWVRQATGQGLEWMGWMHPNSGNTGYAQKFQGRVTLTRNTSISTAYMELSSLRSEDTAVYYCASSSGWYYFDYWGQGTLVTVSS VL: DIVMTQSPDSLAVSLGERATINCKSSQSILHSSNNNNYLAWFQQKPGQPPKLLLYWASTRESGVPDRFSGSGSGTDFTLTISSLQPEDVAVYYCQQYYNTPVTFGPGTKVGIK | 3220 pM | 1070 pM | 0.5 µg/mL | 1070 pM | 3220 pM | 0.6 µg/mL
